# T1: PDZRN3_1, Q9UPQ7
# T1 sequence (Q9UPQ7 244-349, limits assumed, looked up): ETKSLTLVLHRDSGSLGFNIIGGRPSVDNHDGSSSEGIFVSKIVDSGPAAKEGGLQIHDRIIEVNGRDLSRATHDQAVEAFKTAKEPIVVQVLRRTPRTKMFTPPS
# T2: ARHGAP21, Q5T5U3
# T2 sequence (Q5T5U3 45-169, limits assumed, looked up): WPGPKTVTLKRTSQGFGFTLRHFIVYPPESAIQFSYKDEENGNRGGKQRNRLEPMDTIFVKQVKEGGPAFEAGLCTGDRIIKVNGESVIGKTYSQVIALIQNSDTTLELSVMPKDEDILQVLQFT
# T3: DFNB31_3, Q9P202
# T3 sequence (Q9P202 811-907, limits assumed, looked up): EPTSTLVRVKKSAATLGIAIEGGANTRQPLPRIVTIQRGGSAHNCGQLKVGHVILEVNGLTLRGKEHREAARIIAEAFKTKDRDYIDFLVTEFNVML
# T4: MPDZ_5, O75970
# T4 sequence (O75970 695-796, limits assumed, looked up): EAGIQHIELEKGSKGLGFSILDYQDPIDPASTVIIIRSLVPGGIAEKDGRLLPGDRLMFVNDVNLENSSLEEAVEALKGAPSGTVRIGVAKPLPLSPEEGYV
# T5: MPDZ_12, O75970
# T5 sequence (O75970 1857-1958, limits assumed, looked up): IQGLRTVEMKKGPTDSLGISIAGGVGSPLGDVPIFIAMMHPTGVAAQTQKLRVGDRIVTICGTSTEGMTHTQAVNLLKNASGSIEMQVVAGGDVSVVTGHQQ
# T6: MPP7, Q5T2T1
# T6 sequence (Q5T2T1 134-230, limits assumed, looked up): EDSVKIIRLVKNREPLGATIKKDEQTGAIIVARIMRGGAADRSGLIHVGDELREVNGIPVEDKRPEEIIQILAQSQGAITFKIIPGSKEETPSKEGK
# T7: GRIP1_4, Q9Y3R0
# T7 sequence (Q9Y3R0 467-571, limits assumed, looked up): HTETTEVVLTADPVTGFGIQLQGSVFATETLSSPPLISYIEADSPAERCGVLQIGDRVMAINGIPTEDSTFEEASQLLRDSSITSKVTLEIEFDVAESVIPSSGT
# T8: DFNB31_2, Q9P202
# T8 sequence (Q9P202 274-371, limits assumed, looked up): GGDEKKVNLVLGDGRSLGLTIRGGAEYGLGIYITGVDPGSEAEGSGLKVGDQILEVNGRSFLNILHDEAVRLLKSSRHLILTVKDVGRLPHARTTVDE
# T9: DLG3_2, Q92796
# T9 sequence (Q92796 221-321, limits assumed, looked up): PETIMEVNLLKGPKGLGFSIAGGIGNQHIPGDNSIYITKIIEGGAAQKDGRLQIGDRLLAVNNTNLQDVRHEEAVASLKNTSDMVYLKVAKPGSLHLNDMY
# T10: PDZD2_2, O15018
# T10 sequence (O15018 329-429, limits assumed, looked up): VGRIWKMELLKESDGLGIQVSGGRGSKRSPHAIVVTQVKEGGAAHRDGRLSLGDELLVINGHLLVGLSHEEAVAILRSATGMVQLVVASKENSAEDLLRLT
# T11: SNTA1, Q13424
# T11 sequence (Q13424 82-180, limits assumed, looked up): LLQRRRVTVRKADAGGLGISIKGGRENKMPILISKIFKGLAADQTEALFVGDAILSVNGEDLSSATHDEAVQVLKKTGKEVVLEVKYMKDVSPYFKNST
# T12: TX1BP3, O14907
# T12 sequence (O14907 10-122, limits assumed, looked up): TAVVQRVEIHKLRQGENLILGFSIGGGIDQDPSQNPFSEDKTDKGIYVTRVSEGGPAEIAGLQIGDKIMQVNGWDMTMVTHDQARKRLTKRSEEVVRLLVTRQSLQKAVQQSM
# T13: MPDZ_10, O75970
# T13 sequence (O75970 1624-1722, limits assumed, looked up): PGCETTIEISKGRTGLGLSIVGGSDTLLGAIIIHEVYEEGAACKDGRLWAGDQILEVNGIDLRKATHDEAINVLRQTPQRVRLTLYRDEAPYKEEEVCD
# B1: ABCA2, Q9BZC7 (peptide)
# chain: QLSFNTDTLC
# B2: SDC2, P34741 (peptide)
# chain: QKAPTKEFYA
# Molecular target: Inadl_3, Q8NI35
# Sequence (Q8NI35 359-469): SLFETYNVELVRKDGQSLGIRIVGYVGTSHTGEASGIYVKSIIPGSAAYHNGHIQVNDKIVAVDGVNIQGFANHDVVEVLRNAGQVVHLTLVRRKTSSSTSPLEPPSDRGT
# Assay: holdup assay
# Parameters: key: below the threshold = too weak to quantify, mostly under pKd 3.1 to 4
# Settings: plain residues with an end cap or a label only (N-terminal biotin on a linker: ado-ado)
row,pKd,Binder
1,below the threshold,B1
2,below the threshold,B2

# Molecular target: TJP1_2, Q07157
# Sequence (Q07157 181-274): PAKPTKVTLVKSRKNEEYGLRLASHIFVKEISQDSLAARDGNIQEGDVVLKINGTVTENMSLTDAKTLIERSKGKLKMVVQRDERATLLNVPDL
# Assay: holdup assay
# Parameters: key: below the threshold = too weak to quantify, mostly under pKd 3.1 to 4
# Settings: plain residues with an end cap or a label only (N-terminal biotin on a linker: ado-ado)
row,pKd,Binder
1,below the threshold,B1
2,below the threshold,B2

# Molecular target: IL16_1, Q14005
# Sequence (Q14005 210-306): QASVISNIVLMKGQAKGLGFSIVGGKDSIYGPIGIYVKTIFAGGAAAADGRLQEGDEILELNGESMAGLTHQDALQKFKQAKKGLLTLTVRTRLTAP
# Assay: holdup assay
# Parameters: key: below the threshold = too weak to quantify, mostly under pKd 3.1 to 4
# Settings: plain residues with an end cap or a label only (N-terminal biotin on a linker: ado-ado)
row,pKd,Binder
1,3.58,B1
2,below the threshold,B2

# Molecular target: FRMPD3, Q5JV73
# Sequence (Q5JV73 12-100): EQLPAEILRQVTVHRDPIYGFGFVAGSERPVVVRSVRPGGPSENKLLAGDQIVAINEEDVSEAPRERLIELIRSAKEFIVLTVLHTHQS
# Assay: holdup assay
# Parameters: key: below the threshold = too weak to quantify, mostly under pKd 3.1 to 4
# Settings: plain residues with an end cap or a label only (N-terminal biotin on a linker: ado-ado)
row,pKd,Binder
1,below the threshold,B1
2,3.89,B2

# Molecular target: T1, PDZRN3_1, Q9UPQ7
# Assay: holdup assay
# Parameters: key: below the threshold = too weak to quantify, mostly under pKd 3.1 to 4
# Settings: plain residues with an end cap or a label only (N-terminal biotin on a linker: ado-ado)
row,pKd,Binder
1,below the threshold,B1
2,below the threshold,B2

# Molecular target: Inadl_4, Q8NI35
# Sequence (Q8NI35 547-651): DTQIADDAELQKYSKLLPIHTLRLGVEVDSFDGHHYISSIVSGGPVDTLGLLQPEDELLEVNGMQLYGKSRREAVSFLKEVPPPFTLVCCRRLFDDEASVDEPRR
# Assay: holdup assay
# Parameters: key: below the threshold = too weak to quantify, mostly under pKd 3.1 to 4
# Settings: plain residues with an end cap or a label only (N-terminal biotin on a linker: ado-ado)
row,pKd,Binder
1,below the threshold,B1
2,below the threshold,B2

# Molecular target: T2, ARHGAP21, Q5T5U3
# Assay: holdup assay
# Parameters: key: below the threshold = too weak to quantify, mostly under pKd 3.1 to 4
# Settings: plain residues with an end cap or a label only (N-terminal biotin on a linker: ado-ado)
row,pKd,Binder
1,below the threshold,B1
2,below the threshold,B2

# Molecular target: T3, DFNB31_3, Q9P202
# Assay: holdup assay
# Parameters: key: below the threshold = too weak to quantify, mostly under pKd 3.1 to 4
# Settings: plain residues with an end cap or a label only (N-terminal biotin on a linker: ado-ado)
row,pKd,Binder
1,below the threshold,B1
2,3.91,B2

# Molecular target: LIMK2, P53671
# Sequence (P53671 143-248): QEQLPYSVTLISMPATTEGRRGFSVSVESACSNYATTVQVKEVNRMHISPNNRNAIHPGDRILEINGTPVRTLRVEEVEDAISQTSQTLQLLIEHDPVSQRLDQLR
# Assay: holdup assay
# Parameters: key: below the threshold = too weak to quantify, mostly under pKd 3.1 to 4
# Settings: plain residues with an end cap or a label only (N-terminal biotin on a linker: ado-ado)
row,pKd,Binder
1,below the threshold,B1
2,below the threshold,B2

# Molecular target: GRIP2_6, Q9C0E4
# Sequence (Q9C0E4 648-740): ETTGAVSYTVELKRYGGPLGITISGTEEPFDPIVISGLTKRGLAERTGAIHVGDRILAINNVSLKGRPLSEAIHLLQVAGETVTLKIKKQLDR
# Assay: holdup assay
# Parameters: key: below the threshold = too weak to quantify, mostly under pKd 3.1 to 4
# Settings: plain residues with an end cap or a label only (N-terminal biotin on a linker: ado-ado)
row,pKd,Binder
1,below the threshold,B1
2,4.1,B2

# Molecular target: T4, MPDZ_5, O75970
# Assay: holdup assay
# Parameters: key: below the threshold = too weak to quantify, mostly under pKd 3.1 to 4
# Settings: plain residues with an end cap or a label only (N-terminal biotin on a linker: ado-ado)
row,pKd,Binder
1,below the threshold,B1
2,3.48,B2

# Molecular target: T5, MPDZ_12, O75970
# Assay: holdup assay
# Parameters: key: below the threshold = too weak to quantify, mostly under pKd 3.1 to 4
# Settings: plain residues with an end cap or a label only (N-terminal biotin on a linker: ado-ado)
row,pKd,Binder
1,below the threshold,B1
2,3.5,B2

# Molecular target: T6, MPP7, Q5T2T1
# Assay: holdup assay
# Parameters: key: below the threshold = too weak to quantify, mostly under pKd 3.1 to 4
# Settings: plain residues with an end cap or a label only (N-terminal biotin on a linker: ado-ado)
row,pKd,Binder
1,below the threshold,B1
2,below the threshold,B2

# Molecular target: T7, GRIP1_4, Q9Y3R0
# Assay: holdup assay
# Parameters: key: below the threshold = too weak to quantify, mostly under pKd 3.1 to 4
# Settings: plain residues with an end cap or a label only (N-terminal biotin on a linker: ado-ado)
row,pKd,Binder
1,below the threshold,B1
2,below the threshold,B2

# Molecular target: MAGI3_2, Q5TCQ9
# Sequence (Q5TCQ9 398-503): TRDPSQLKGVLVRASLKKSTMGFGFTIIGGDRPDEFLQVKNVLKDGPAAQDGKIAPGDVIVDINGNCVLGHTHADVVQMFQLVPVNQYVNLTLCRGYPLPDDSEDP
# Assay: holdup assay
# Parameters: key: below the threshold = too weak to quantify, mostly under pKd 3.1 to 4
# Settings: plain residues with an end cap or a label only (N-terminal biotin on a linker: ado-ado)
row,pKd,Binder
1,below the threshold,B1
2,below the threshold,B2

# Molecular target: T8, DFNB31_2, Q9P202
# Assay: holdup assay
# Parameters: key: below the threshold = too weak to quantify, mostly under pKd 3.1 to 4
# Settings: plain residues with an end cap or a label only (N-terminal biotin on a linker: ado-ado)
row,pKd,Binder
1,below the threshold,B1
2,below the threshold,B2

# Molecular target: HTRA1, Q92743
# Sequence (Q92743 360-477): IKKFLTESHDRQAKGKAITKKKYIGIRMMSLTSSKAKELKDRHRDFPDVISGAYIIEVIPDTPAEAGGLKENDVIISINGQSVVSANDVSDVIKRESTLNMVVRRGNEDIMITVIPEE
# Assay: holdup assay
# Parameters: key: below the threshold = too weak to quantify, mostly under pKd 3.1 to 4
# Settings: plain residues with an end cap or a label only (N-terminal biotin on a linker: ado-ado)
row,pKd,Binder
1,4.11,B1
2,4.47,B2

# Molecular target: T9, DLG3_2, Q92796
# Assay: holdup assay
# Parameters: key: below the threshold = too weak to quantify, mostly under pKd 3.1 to 4
# Settings: plain residues with an end cap or a label only (N-terminal biotin on a linker: ado-ado)
row,pKd,Binder
1,4.26,B1
2,4.18,B2

# Molecular target: T10, PDZD2_2, O15018
# Assay: holdup assay
# Parameters: key: below the threshold = too weak to quantify, mostly under pKd 3.1 to 4
# Settings: plain residues with an end cap or a label only (N-terminal biotin on a linker: ado-ado)
row,pKd,Binder
1,below the threshold,B1
2,below the threshold,B2

# Molecular target: T11, SNTA1, Q13424
# Assay: holdup assay
# Parameters: key: below the threshold = too weak to quantify, mostly under pKd 3.1 to 4
# Settings: plain residues with an end cap or a label only (N-terminal biotin on a linker: ado-ado)
row,pKd,Binder
1,below the threshold,B1
2,below the threshold,B2

# Molecular target: T12, TX1BP3, O14907
# Assay: holdup assay
# Parameters: key: below the threshold = too weak to quantify, mostly under pKd 3.1 to 4
# Settings: plain residues with an end cap or a label only (N-terminal biotin on a linker: ado-ado)
row,pKd,Binder
1,4.04,B1
2,below the threshold,B2

# Molecular target: PDLIM1, O00151
# Sequence (O00151 1-87): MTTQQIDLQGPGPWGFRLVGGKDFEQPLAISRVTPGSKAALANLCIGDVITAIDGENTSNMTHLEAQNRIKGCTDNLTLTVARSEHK
# Assay: holdup assay
# Parameters: key: below the threshold = too weak to quantify, mostly under pKd 3.1 to 4
# Settings: plain residues with an end cap or a label only (N-terminal biotin on a linker: ado-ado)
row,pKd,Binder
1,below the threshold,B1
2,below the threshold,B2

# Molecular target: T13, MPDZ_10, O75970
# Assay: holdup assay
# Parameters: key: below the threshold = too weak to quantify, mostly under pKd 3.1 to 4
# Settings: plain residues with an end cap or a label only (N-terminal biotin on a linker: ado-ado)
row,pKd,Binder
1,below the threshold,B1
2,below the threshold,B2

# Molecular target: MAGI2_2, Q86UL8
# Sequence (Q86UL8 410-522): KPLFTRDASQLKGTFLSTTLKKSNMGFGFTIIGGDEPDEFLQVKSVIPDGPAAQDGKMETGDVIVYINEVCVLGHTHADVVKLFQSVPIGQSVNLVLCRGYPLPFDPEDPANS
# Assay: holdup assay
# Parameters: key: below the threshold = too weak to quantify, mostly under pKd 3.1 to 4
# Settings: plain residues with an end cap or a label only (N-terminal biotin on a linker: ado-ado)
row,pKd,Binder
1,below the threshold,B1
2,below the threshold,B2
